Experimental data taken from article PMC6331805.

Molecular target: T1, NtcA (Synechocystis sp. PCC 6803) (UniProt P33779)
T1 sequence: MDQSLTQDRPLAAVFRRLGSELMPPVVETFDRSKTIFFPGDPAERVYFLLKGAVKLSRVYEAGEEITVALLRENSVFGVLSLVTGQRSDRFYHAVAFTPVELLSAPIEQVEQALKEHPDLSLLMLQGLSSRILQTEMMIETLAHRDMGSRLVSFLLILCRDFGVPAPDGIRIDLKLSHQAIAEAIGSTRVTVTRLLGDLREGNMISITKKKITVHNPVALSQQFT
Experiment: EMSA
Details: Roche DIG Gel Shift kit buffer (composition and pH not stated), 2 ng DIG-labeled DNA, 15 min at room temperature, native 8% PAGE; 5 mM MgCl2 in 2-oxoglutarate …

Sequence | binding
TTTGAGCCTAACATTATCCTCCCGTTGCCTTTTTCACCACAGACTTGCCATGGGCGCAATACTCTGTTACATTTATTTACATAGACAACCCTCCCAGCTCGTAATTACAT (double strand) [scpB promoter fragment 110 bp] | binds
ACTCTGACGTACCCATTGACGGGGTAACTTACTCAAGCTAAAAGGTAAAGAATTGTAAACTAAGTTAATTATCCCAGGAAATCCCATGAG (double strand) [scpE promoter fragment 90 bp] | binds
